Changes are numbered by the printed parent chain. Values belong to the binder of their own block, whether it stands above or below them.
Biological target: (GST-GATE16)2, P60520
Assay: BLI
Settings: chain shown with the change; 5 µM (GST-GATE16)2; NCOA4 construct immobilized to the probe; parent: est. 0.105; read off a plot

Sequence of (GST-GATE16)2, P60520 (P60520 whole entry): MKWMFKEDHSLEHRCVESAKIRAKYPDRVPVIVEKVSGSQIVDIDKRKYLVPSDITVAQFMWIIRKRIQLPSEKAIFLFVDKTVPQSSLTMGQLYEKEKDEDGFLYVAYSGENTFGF

response: 0.026 nm
B1: biotinylated AviTag-His6-NCOA4^383−522-MBP, Q13772 486F:A (protein)
chain: SMVTEDWLVQNHQDPCKVEEVCRANEPCTSFAECVCDENCEKEALYKWLLKKEGKDKNGMPVEPKPEPEKHKDSLNMWLCPRKEVIEQTKAPKAMTPSRIADSAQVIKNSPLSEWLIRPPYKEGSPKEVPGTEDRAGKQK

response: 0.056 nm
B2: biotinylated AviTag-His6-NCOA4^383−522-MBP, Q13772 413F:A (protein)
chain: B1 chain with F31A, A104F

From PMC12872393, “NCOA4 initiates ferritinophagy by avidly binding GATE16 using two short linear interaction motifs” (Life Science Alliance, 2026)
